Measured values reported in paper PMC7969015 (Nucleic Acids Research, 2021).
Values belong to the molecule of their own block, whether it stands above or below them.

Columns and labels:
Assay in all cases: SEC
[1] = biological target: hGTPBP3 G domain (G249-P426) (human)
[2] = biological target: hGTPBP3 G domain A322P (human)
[3] = biological target: hGTPBP3 G domain ΔG312-V319 (human)
[4] = biological target: mature hGTPBP3 (hGTPBP3-ΔN20, T21-K492) (human)
[5] = biological target: hGTPBP3 G domain P257H (human)
[6] = biological target: ΔN-hGTPBP3 (N154-K492) (human)
SEC = biological target: the molecule itself

Molecule: hGTPBP3 G domain A322P (domain or fragment)
stoichiometry N [2]: 2

Molecule: hGTPBP3 G domain ΔG312-V319 (domain or fragment)
stoichiometry N [3]: 2

B1: EcMnmE G domain (G216-G384) (domain or fragment, Escherichia coli, UniProt P25522 216-384, looked up)
chain: GMKVVIAGRPNAGKSSLLNALAGREAAIVTDIAGTTRDVLREHIHIDGMPLHIIDTAGLREASDEVERIGIERAWQEIEQADRVLFMVDGTTTDAVDPAEIWPEFIARLPAKLPITVVRNKADITGETLGMSEVNGHALIRLSARTGEGVDVLRNHLKQSMGFDTNMEG
stoichiometry N (SEC): 2

The remaining lines, values ahead:

stoichiometry N [1]: 2
Molecule: hGTPBP3 G domain (G249-P426) (domain or fragment)

stoichiometry N [4]: 2
Molecule: mature hGTPBP3 (hGTPBP3-ΔN20, T21-K492) (enzyme)

stoichiometry N [5]: 2
Molecule: hGTPBP3 G domain P257H (domain or fragment)

stoichiometry N [6]: 2
Molecule: ΔN-hGTPBP3 (N154-K492) (domain or fragment)
